Among the data in paper PMC5748838, “SUMO chain formation relies on the amino-terminal region of SUMO-conjugating enzyme and has dedicated substrates in plants” (Biochemical Journal, 2017) are Kd values, retold here.

Numbering of substitutions follows the chain as printed.

Test in all cases: ITC; SCE at 60 µM in the cell (300 µl loaded), SUMO1-Flag-His at 600 µM in the syringe; 20 injections; 25°C; 20 mM Tris, 5 mM MgCl2, pH 7.4; MicroCal ITC 200
What all share (conditions): both partners purified
(ITC needs no label: the signal is the heat of the interaction.)

The target of assay [1] is T1, Arabidopsis SUMO-conjugating enzyme SCE1, wild type (Arabidopsis, UniProt Q42551 1-160).
T1 construct: SUMO-conjugating enzyme SCE1, Arabidopsis thaliana, AT3G57870; also called SCE WT; WT SCE; source: MonoS ion exchange for ITC
T1 sequence (looked up): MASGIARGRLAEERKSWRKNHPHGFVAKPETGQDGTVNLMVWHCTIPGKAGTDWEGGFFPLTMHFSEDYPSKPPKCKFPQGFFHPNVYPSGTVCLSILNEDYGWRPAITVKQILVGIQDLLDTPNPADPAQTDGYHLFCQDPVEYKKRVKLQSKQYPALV

In the next assay the target is T2, SCE K28R (Arabidopsis, UniProt Q42551 1-160, K28R).
T2 construct: SUMO-conjugating enzyme SCE1, Arabidopsis thaliana, AT3G57870, with K28R; source: MonoS ion exchange for ITC
T2 sequence (looked up): T1 sequence (looked up) with K28R

Another assay concerns the target T3, SCE K15R (Arabidopsis, UniProt Q42551 1-160, K15R).
T3 construct: SUMO-conjugating enzyme SCE1, Arabidopsis thaliana, AT3G57870, with K15R; also called SCE1 K15R; source: MonoS ion exchange for ITC
T3 sequence (looked up): T1 sequence (looked up) with K15R

The Kd is a measure of binding affinity in units of concentration.

B1: SUMO1-Flag-His (natural protein, Arabidopsis, UniProt P55852 1-93, looked up)
chain: MSANQEEDKKPGDGGAHINLKVKGQDGNEVFFRIKRSTQLKKLMNAYCDRQSVDMNSIAFLFDGRRLRAEQTPDELDMEDGDEIDAMLHQTGG
notes: SUMO1 (small ubiquitin-related modifier 1), Arabidopsis; The SUMO preparations are conjugated in vitro without a protease, so the processed form ending in Gly-Gly is surmised; also called N-terminally tagged SUMO (Flag-His); source: purified (Ni2+ resin, then MonoQ ion exchange for ITC); not shown: Flag, N-terminal, kept; His, N-terminal, kept
With B1, the dissociation constant Kd in assay [1] was 710 ± 230 µM; with SCE K28R it was 270 ± 330 µM; in the assay with SCE K15R it was 33 ± 17 µM.
